{
  "source": "patent US20030032582A1",
  "experiment_in_all_cases": "cell-based or functional assay",
  "key": {"TCR Vβ2 (human)": {"target": "TCR Vβ2 (human)"}, "TCR Vβ5 (human)": {"target": "TCR Vβ5 (human)"}, "TCR Vβ8 (human)": {"target": "TCR Vβ8 (human)"}},
  "data": [
    {"substance": "H-TSST1 (ligand)", "values": [
      {"measurement": "CD3^+ Blasts Binding Anti-Vβ (%)", "setting": "TCR Vβ2 (human)", "result": 33, "unit": "%"},
      {"measurement": "CD3^+ Blasts Binding Anti-Vβ, fold difference versus unstimulated controls", "setting": "TCR Vβ2 (human)", "result": 3.4, "unit": "fold"},
      {"measurement": "CD3^+ Lymphocytes Binding Anti-Vβ (%)", "setting": "TCR Vβ2 (human)", "result": 5.1, "unit": "%"},
      {"measurement": "CD3^+ Lymphocytes Binding Anti-Vβ, fold difference versus unstimulated controls", "setting": "TCR Vβ2 (human)", "result": 0.5, "unit": "fold"},
      {"measurement": "CD3^+ Blasts Binding Anti-Vβ (%)", "setting": "TCR Vβ5 (human)", "result": 4.5, "unit": "%"},
      {"measurement": "CD3^+ Blasts Binding Anti-Vβ, fold difference versus unstimulated controls", "setting": "TCR Vβ5 (human)", "result": 2, "unit": "fold"},
      {"measurement": "CD3^+ Lymphocytes Binding Anti-Vβ (%)", "setting": "TCR Vβ5 (human)", "result": 2, "unit": "%"},
      {"measurement": "CD3^+ Lymphocytes Binding Anti-Vβ, fold difference versus unstimulated controls", "setting": "TCR Vβ5 (human)", "result": 0.9, "unit": "fold"},
      {"measurement": "CD3^+ Blasts Binding Anti-Vβ (%)", "setting": "TCR Vβ8 (human)", "result": 4.6, "unit": "%"},
      {"measurement": "CD3^+ Blasts Binding Anti-Vβ, fold difference versus unstimulated controls", "setting": "TCR Vβ8 (human)", "result": 1.1, "unit": "fold"},
      {"measurement": "CD3^+ Lymphocytes Binding Anti-Vβ (%)", "setting": "TCR Vβ8 (human)", "result": 4.1, "unit": "%"},
      {"measurement": "CD3^+ Lymphocytes Binding Anti-Vβ, fold difference versus unstimulated controls", "setting": "TCR Vβ8 (human)", "result": 1, "unit": "fold"}
    ]}
  ]
}
